# Test results as given in US20220356217A1.
# Target: human integrin αIIbβ3 on cells (K562 cells stably expressing αIIbβ3; human platelets) (human) (UniProt P08514)
# Test: FACS; displacement of Alexa647-labeled soluble fibrinogen from activated αIIbβ3-K562 cells
substance,measurement,value
eptifibatide (peptide),IC50,73.2 nM
